From IntAct's records for PubMed 25910212

B1: Ribose-phosphate pyrophosphokinase 1 (Homo sapiens), P60891 (parent)
chain: MPNIKIFSGSSHQDLSQKIADRLGLELGKVVTKKFSNQETCVEIGESVRGEDVYIVQSGCGEINDNLMELLIMINACKIASASRVTAVIPCFPYARQDKKDKSRAPISAKLVANMLSVAGADHIITMDLHASQIQGFFDIPVDNLYAEPAVLKWIRENISEWRNCTIVSPDAGGAKRVTSIADRLNVDFALIHKERKKANEVDRMVLVGDVKDRVAILVDDMADTCGTICHAADKLLSAGATRVYAILTHGIFSGPAISRINNACFEAVVVTNTIPQEDKMKHCSKIQVIDISMILAEAIRRTHNGESVSYLFSHVPL
partner: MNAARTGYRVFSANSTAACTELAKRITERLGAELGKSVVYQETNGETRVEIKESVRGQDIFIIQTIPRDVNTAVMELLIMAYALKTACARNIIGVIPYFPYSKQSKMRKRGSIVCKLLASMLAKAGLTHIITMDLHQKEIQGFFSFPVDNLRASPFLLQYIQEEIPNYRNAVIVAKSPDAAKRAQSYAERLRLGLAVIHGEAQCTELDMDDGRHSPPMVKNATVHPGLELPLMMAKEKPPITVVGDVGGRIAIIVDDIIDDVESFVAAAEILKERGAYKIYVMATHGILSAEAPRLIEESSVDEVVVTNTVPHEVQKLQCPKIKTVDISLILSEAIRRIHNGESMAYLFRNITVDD
B2: H/ACA ribonucleoprotein complex subunit 3 (Homo sapiens), Q9NPE3 (parent)
chain: MFLQYYLNEQGDRVYTLKKFDPMGQQTCSAHPARFSPDDKYSRHRITIKKRFKVLMTQQPRPVL
partner: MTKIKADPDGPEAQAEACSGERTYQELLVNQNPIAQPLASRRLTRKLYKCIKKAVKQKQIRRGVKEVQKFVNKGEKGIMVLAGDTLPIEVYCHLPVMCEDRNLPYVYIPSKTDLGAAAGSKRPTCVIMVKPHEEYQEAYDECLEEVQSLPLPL
B3: Synaptogyrin-1 (Homo sapiens), O43759-2 (parent)
chain: MEGGAYGAGKAGGAFDPYTLVRQPHTILRVVSWLFSIVVFGSIVNEGYLNSASEGEEFCIYNRNPNACSYGVAVGVLAFLTCLLYLALDVYFPQISSVKDRKKAVLSDIGVSAFWAFLWFVGFCYLANQWQVSKPKDNPLNEGTDAARAAIAFSFFSIFTWSLTAALAVRRFKDLSFQEEYSTLFPASAQP
partner: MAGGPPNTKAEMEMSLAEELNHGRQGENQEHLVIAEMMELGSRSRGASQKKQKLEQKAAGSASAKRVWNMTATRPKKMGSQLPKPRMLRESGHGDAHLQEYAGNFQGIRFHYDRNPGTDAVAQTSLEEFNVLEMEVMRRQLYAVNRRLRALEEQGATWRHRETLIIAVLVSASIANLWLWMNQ
B4: Lipopolysaccharide-induced tumor necrosis factor-alpha factor (Homo sapiens), Q99732 (parent)
chain: MSVPGPYQAATGPSSAPSAPPSYEETVAVNSYYPTPPAPMPGPTTGLVTGPDGKGMNPPSYYTQPAPIPNNNPITVQTVYVQHPITFLDRPIQMCCPSCNKMIVSQLSYNAGALTWLSCGSLCLLGCIAGCCFIPFCVDALQDVDHYCPNCRALLGTYKRL
partner: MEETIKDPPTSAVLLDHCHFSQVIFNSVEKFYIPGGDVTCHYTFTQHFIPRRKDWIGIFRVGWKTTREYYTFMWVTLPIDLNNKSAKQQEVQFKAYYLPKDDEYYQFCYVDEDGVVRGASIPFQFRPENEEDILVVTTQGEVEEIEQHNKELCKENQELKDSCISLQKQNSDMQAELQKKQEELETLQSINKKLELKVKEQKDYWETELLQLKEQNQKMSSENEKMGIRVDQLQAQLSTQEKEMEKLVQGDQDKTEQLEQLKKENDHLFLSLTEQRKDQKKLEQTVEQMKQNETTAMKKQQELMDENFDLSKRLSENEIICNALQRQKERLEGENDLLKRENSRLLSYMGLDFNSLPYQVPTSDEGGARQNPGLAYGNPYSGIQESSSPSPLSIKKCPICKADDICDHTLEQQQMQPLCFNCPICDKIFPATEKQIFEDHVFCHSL
B5: Emerin (Homo sapiens), P50402 (parent)
chain: MDNYADLSDTELTTLLRRYNIPHGPVVGSTRRLYEKKIFEYETQRRRLSPPSSSAASSYSFSDLNSTRGDADMYDLPKKEDALLYQSKGYNDDYYEESYFTTRTYGEPESAGPSRAVRQSVTSFPDADAFHHQVHDDDLLSSSEEECKDRERPMYGRDSAYQSITHYRPVSASRSSLDLSYYPTSSSTSFMSSSSSSSSWLTRRAIRPENRAPGAGLGQDRQVPLWGQLLLFLVFVIVLFFIYHFMQAEEGNPF
partner: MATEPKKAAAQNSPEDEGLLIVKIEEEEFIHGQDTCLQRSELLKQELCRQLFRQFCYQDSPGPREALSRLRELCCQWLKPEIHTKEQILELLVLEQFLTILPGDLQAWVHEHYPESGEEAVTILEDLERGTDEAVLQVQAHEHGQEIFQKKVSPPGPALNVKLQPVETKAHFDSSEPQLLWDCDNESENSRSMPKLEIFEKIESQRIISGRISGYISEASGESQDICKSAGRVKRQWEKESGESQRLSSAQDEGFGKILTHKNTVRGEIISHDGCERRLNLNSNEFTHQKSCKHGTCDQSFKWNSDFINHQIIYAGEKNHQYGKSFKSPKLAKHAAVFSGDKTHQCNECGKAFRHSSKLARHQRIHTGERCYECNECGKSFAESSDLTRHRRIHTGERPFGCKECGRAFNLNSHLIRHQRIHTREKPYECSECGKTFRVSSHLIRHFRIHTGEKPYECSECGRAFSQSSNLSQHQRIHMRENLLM
B6: DNA mismatch repair protein Mlh1 (Homo sapiens), P40692 (parent)
chain: MSFVAGVIRRLDETVVNRIAAGEVIQRPANAIKEMIENCLDAKSTSIQVIVKEGGLKLIQIQDNGTGIRKEDLDIVCERFTTSKLQSFEDLASISTYGFRGEALASISHVAHVTITTKTADGKCAYRASYSDGKLKAPPKPCAGNQGTQITVEDLFYNIATRRKALKNPSEEYGKILEVVGRYSVHNAGISFSVKKQGETVADVRTLPNASTVDNIRSIFGNAVSRELIEIGCEDKTLAFKMNGYISNANYSVKKCIFLLFINHRLVESTSLRKAIETVYAAYLPKNTHPFLYLSLEISPQNVDVNVHPTKHEVHFLHEESILERVQQHIESKLLGSNSSRMYFTQTLLPGLAGPSGEMVKSTTSLTSSSTSGSSDKVYAHQMVRTDSREQKLDAFLQPLSKPLSSQPQAIVTEDKTDISSGRARQQDEEMLELPAPAEVAAKNQSLEGDTTKGTSEMSEKRGPTSSNPRKRHREDSDVEMVEDDSRKEMTAACTPRRRIINLTSVLSLQEEINEQGHEVLREMLHNHSFVGCVNPQWALAQHQTKLYLLNTTKLSEELFYQILIYDFANFGVLRLSEPAPLFDLAMLALDSPESGWTEEDGPKEGLAEYIVEFLKKKAEMLADYFSLEIDEEGNLIGLPLLIDNYVPPLEGLPIFILRLATEVNWDEEKECFESLSKECAMFYSIRKQYISEESTLSGQQSEVPGSIPNSWKWTVEHIVYKALRSHILPPKHFTEDGNILQLANLPDLYKVFERC
partner: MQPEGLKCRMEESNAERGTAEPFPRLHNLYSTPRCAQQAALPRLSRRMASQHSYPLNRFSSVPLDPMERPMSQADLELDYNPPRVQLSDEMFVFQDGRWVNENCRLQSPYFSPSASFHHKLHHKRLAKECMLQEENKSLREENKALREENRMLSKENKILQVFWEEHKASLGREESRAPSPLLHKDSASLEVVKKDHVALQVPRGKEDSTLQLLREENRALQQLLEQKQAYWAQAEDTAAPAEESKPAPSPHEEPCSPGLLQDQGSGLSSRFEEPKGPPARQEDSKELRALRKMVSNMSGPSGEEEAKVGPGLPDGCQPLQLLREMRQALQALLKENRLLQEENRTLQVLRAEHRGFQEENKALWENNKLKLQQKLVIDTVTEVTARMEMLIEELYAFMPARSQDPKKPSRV
B7: THAP domain-containing protein 1 (Homo sapiens), Q9NVV9 (parent)
chain: MVQSCSAYGCKNRYDKDKPVSFHKFPLTRPSLCKEWEAAVRRKNFKPTKYSSICSEHFTPDCFKRECNNKLLKENAVPTIFLCTEPHDKKEDLLEPQEQLPPPPLPPPVSQVDAAIGLLMPPLQTPVNLSVFCDHNYTVEDTMHQRKRIHQLEQQVEKLRKKLKTAQQRCRRQERQLEKLKEVVHFQKEKDDVSERGYVILPNDYFEIVEVPA
B8: EF-hand domain-containing protein 1 (Homo sapiens), Q5JVL4 (parent)
chain: MVSNPVHGLPFLPGTSFKDSTKTAFHRSQTLSYRNGYAIVRRPTVGIGGDRLQFNQLSQAELDELASKAPVLTYGQPKQAPPADFIPAHVAFDKKVLKFDAYFQEDVPMSTEEQYRIRQVNIYYYLEDDSMSVIEPVVENSGILQGKLIKRQRLAKNDRGDHYHWKDLNRGINITIYGKTFRVVDCDQFTQVFLESQGIELNPPEKMALDPYTELRKQPLRKYVTPSDFDQLKQFLTFDKQVLRFYAIWDDTDSMYGECRTYIIHYYLMDDTVEIREVHERNDGRDPFPLLMNRQRVPKVLVENAKNFPQCVLEISDQEVLEWYTAKDFIVGKSLTILGRTFFIYDCDPFTRRYYKEKFGITDLPRIDVSKREPPPVKQELPPYNGFGLVEDSAQNCFALIPKAPKKDVIKMLVNDNKVLRYLAVLESPIPEDKDRRFVFSYFLATDMISIFEPPVRNSGIIGGKYLGRTKVVKPYSTVDNPVYYGPSDFFIGAVIEVFGHRFIILDTDEYVLKYMESNAAQYSPEALASIQNHVRKREAPAPEAESKQTEKDPGVQELEALIDTIQKQLKDHSCKDNIREAFQIYDKEASGYVDRDMFFKICESLNVPVDDSLVKELIRMCSHGEGKINYYNFVRAFSN
partner: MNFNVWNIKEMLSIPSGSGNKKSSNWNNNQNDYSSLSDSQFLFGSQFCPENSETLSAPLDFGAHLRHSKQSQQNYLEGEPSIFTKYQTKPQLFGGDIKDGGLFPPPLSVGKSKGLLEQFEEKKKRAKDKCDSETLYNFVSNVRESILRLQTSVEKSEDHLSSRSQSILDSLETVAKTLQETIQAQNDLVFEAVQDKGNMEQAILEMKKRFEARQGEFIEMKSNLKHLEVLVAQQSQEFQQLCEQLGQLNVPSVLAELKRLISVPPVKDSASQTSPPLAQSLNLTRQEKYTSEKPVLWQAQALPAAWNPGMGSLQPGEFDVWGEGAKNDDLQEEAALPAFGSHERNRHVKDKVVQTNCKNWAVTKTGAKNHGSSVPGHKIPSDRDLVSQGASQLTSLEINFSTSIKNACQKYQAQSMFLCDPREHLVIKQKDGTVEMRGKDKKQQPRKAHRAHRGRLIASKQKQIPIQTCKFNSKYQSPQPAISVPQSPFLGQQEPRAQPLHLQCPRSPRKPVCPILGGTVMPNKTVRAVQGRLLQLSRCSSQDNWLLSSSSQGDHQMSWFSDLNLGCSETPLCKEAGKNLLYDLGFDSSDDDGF

Variants of: B1
Conditions: with kpra_human PRPSAP1, Q14558

Variant	effect of a mutation on the interaction
D52H	with no effect
D183H	with no effect
N114S	with no effect

Variants of: B2
Conditions: with nhp2_human NHP2, Q9NX24

Variant	effect of a mutation on the interaction
R34W	with no effect

Variants of: B3
Conditions: with fate1_human FATE1, Q969F0

Variant	effect of a mutation on the interaction
K99E	disrupting interaction strength

Variants of: B4
Conditions: with caco2_human CALCOCO2, Q13137

Variant	effect of a mutation on the interaction
A111G	disrupting interaction strength
G112S	disrupting interaction strength
I92V	with no effect

Variants of: B5
Conditions: with zn165_human ZNF165, P49910

Variant	effect of a mutation on the interaction
S54F	with no effect
P183H	with no effect

Variants of: B6
Conditions: with CBY2, Q8NA61-2

Variant	effect of a mutation on the interaction
S44F	disrupting interaction strength
G244D	with no effect
R472I	with no effect

Variants of: B7
Conditions: with RALYL

Variant	effect of a mutation on the interaction
F81L	with no effect

Variants of: B7
Conditions: with nup62_human NUP62, P37198
nup62_human NUP62, P37198, sequence (P37198 whole entry): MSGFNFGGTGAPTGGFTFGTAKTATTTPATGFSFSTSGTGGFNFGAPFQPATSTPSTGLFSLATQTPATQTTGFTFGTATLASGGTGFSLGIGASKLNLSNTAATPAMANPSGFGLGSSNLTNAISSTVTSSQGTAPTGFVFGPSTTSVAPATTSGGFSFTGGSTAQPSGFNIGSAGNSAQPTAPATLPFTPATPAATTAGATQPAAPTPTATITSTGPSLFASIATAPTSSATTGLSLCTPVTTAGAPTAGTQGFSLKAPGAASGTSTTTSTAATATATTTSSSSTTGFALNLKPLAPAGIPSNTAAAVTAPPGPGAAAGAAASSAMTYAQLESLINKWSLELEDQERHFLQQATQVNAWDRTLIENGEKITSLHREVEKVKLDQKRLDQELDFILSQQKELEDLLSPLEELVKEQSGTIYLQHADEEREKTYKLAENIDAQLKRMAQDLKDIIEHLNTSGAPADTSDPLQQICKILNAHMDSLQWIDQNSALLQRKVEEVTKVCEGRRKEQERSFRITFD

Variant	effect of a mutation on the interaction
F81L	with no effect

Variants of: B8
Conditions: with iho1_human IHO1, Q8IYA8

Variant	effect of a mutation on the interaction
P77T	disrupting interaction strength
M448T	with no effect
R159W	with no effect
A394S	disrupting interaction strength
T508R	disrupting interaction strength
